In patent US6753151B1, “Interactions of Ku polypeptides and applications thereof” (Kudos Pharmaceuticals Limited, priority 1999, dated 2004):
Entries after “also recorded” stand apart in the source; their conditions may differ.

Columns and labels:
[1] = target: T1, purified DNA-PKcs (Homo sapiens, UniProt P78527); experiment: GST pull-down with purified DNA-PKcs; type: binding; conditions: for effect of DNA or EtBr on binding of purified DNA-PKcs: 20 ng/μl sonicated calf thymus DNA or 0.2 mg/ml EtBr; for salt dependence of interaction with homogeneous DNA-PKcs: 50 mM to 150 mM KCl; for interaction with purified DNA-PKcs: 120 mM KCl, silver-staining
T1 construct: The starting material for purification of DNA-PKcs was HeLa NE; host or cells: HeLa nuclear extract; purified in house over Q Sepharose, heparin agarose, phenyl Sepharose and Mono-S
T1 sequence (P78527 whole entry): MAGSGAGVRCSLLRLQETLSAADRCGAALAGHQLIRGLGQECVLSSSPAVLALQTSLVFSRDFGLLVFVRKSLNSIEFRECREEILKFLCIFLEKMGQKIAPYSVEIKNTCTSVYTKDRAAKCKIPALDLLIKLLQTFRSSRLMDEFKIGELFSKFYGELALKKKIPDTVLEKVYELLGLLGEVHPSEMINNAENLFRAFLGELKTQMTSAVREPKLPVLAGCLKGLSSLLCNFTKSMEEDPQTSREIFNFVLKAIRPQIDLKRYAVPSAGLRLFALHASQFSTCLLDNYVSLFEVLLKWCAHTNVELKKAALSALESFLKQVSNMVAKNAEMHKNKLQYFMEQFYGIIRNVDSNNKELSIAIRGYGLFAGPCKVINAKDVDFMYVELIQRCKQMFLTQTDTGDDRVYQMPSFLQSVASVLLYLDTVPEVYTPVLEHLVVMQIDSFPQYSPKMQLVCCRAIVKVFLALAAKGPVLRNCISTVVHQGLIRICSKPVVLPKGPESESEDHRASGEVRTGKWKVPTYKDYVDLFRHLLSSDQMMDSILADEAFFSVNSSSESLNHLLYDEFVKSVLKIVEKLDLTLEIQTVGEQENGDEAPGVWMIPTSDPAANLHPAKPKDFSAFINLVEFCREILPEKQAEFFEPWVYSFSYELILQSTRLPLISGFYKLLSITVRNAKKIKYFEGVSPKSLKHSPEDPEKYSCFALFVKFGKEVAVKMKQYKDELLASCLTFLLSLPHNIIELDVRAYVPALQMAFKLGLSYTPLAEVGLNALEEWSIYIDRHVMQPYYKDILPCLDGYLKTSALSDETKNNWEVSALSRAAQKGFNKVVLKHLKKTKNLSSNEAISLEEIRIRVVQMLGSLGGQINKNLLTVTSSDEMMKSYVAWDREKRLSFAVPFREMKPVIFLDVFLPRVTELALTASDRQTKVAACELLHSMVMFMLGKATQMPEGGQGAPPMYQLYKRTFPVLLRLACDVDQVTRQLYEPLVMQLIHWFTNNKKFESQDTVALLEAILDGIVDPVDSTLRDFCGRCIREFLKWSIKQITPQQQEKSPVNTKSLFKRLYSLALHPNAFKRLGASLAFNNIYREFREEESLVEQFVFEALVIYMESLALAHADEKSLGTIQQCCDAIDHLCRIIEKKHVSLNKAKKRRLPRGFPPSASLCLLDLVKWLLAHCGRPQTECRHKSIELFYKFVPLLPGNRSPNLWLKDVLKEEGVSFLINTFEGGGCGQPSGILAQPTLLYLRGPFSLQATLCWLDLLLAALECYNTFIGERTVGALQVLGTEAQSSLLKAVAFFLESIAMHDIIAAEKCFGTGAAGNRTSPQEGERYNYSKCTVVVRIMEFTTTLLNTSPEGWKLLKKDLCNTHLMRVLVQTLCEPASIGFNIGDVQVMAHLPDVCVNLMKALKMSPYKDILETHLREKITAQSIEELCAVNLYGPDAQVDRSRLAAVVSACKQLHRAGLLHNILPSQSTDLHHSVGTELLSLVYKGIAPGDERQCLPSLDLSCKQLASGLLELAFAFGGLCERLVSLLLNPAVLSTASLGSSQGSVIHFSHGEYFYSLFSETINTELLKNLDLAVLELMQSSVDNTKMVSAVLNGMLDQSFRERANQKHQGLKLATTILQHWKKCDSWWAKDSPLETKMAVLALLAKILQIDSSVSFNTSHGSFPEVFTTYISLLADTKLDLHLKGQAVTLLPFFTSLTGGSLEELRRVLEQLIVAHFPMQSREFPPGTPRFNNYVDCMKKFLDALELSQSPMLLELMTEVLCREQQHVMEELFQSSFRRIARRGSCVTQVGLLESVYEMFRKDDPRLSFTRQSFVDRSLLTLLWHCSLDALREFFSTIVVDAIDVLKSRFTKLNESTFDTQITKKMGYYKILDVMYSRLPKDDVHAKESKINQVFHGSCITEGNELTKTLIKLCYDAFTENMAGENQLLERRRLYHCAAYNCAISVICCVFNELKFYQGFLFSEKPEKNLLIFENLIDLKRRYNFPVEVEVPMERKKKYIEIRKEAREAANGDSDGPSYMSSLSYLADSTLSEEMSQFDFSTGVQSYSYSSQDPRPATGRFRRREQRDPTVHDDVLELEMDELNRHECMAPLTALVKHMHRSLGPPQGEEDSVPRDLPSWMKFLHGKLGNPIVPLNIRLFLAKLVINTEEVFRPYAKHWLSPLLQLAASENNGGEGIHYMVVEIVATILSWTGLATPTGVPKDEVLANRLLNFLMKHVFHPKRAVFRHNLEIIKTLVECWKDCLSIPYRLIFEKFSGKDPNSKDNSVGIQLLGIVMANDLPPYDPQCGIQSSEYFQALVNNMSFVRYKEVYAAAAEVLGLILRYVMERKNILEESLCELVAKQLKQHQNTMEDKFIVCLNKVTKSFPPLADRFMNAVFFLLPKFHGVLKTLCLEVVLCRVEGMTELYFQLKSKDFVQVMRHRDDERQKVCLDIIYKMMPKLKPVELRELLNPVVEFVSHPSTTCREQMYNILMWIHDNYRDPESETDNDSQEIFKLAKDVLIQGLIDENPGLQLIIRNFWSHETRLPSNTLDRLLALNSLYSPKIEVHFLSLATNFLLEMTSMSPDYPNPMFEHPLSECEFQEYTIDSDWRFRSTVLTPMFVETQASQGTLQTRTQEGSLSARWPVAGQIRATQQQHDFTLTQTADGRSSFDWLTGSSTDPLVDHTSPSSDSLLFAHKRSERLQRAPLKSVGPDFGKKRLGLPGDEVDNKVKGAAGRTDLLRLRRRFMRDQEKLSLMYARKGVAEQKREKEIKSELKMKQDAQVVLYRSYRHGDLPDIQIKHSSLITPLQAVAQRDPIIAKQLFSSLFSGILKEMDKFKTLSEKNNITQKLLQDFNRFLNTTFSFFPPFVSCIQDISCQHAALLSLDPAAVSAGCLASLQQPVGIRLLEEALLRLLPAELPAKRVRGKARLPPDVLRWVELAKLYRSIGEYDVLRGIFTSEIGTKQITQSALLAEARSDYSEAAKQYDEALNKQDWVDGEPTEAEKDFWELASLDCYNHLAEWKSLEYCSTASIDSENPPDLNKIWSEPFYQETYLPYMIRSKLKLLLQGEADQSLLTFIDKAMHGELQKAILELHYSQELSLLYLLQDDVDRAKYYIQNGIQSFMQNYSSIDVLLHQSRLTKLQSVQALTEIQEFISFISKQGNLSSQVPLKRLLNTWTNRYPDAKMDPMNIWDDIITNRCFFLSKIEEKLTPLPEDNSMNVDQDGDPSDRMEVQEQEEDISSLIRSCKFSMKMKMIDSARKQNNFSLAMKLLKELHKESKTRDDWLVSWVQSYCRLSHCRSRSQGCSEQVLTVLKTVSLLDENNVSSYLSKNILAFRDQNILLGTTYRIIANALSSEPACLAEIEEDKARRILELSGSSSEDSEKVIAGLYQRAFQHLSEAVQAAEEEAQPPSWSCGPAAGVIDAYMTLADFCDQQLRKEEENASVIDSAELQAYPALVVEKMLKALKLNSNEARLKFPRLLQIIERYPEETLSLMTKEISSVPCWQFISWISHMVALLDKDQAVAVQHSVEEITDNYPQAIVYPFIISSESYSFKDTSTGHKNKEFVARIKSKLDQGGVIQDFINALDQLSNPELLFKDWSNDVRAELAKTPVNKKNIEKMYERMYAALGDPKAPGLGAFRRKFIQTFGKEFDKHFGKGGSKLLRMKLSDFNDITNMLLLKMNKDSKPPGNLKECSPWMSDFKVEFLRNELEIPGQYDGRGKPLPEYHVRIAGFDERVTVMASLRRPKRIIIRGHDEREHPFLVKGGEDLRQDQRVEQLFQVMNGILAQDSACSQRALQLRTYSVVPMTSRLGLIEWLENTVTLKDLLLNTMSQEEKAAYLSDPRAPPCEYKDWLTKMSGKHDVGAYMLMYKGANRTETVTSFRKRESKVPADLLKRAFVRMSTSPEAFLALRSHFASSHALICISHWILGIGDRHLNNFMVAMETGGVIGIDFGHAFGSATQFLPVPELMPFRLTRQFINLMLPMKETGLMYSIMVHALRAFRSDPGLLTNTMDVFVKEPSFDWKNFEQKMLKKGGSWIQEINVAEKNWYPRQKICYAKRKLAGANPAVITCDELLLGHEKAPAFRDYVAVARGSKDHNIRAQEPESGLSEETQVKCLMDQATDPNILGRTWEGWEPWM
Experimental: (§1) GST-Ku70 or GST-Ku80 (0.5-2.0 μg), or deletion derivative thereof, bound to Glutathione agarose beads, was incubated with ˜100 μg (10 μl) of HeLa Cell nuclear extract (NE) and 80 μl of Z′ buffer (25 mM HEPES pH 6.7, 12.5 mM MgCl2, 1 mM dithiothreitol, 0.1% Nonidet P40 (BDH), 20% Glycerol) containing the specified concentration of KCl (for example, 50 mM Z′ contains 50 mM KCl in addition to the other buffer components). Binding reactions were incubated at 4° C. for 3-4 hours and the beads recovered by centrifugation and washed 7 times in 1 ml of Buffer X (25 mM HEPES pH 6.7, 2 mM MgCl2, 1 mM Dithiothreitol, 0.4% Nonidet P40) containing the specified concentration of KCl (for example, 120 mM Buffer X contains 120 mM KCl in addition to the other buffer components). Proteins retained on the beads after washing were eluted in SDS gel-loading buffer and half of the sample subjected to polyacrylamide gel eletrophoresis and silver staining. “Pulldown” assays from purified DNA-PKcs were done as above with 400 ng of purified DNA-PKcs substituted for HeLa NE.
The starting material for purification of DNA-PKcs was HeLa NE obtained from the Computer Cell Culture Centre, Mons, Belgium. All purification steps were performed in buffer D (20 mM HEPES pH 7.6, 2 mm MgCl2, 0.2 mM EDTA, 10% Glycerol) with a specified concentration of KCl (for example 50 mM Buffer D contains 50 mM KCl in addition to the other buffer components). In a representative purification, 35 ml of HeLa NE was cleared by centrifugation and diluted to a final concentration of 50 mM Buffer D, and protease inhibitors added (Boehringer). This was loaded onto a 60 ml column of Q Sepharose (Pharmacia) and eluted in a linear salt gradient of 50-500 mM Buffer D. Under these conditions the majority of DNA-PKcs and Ku were separated into two fractions peaking at approximately 200 mM Buffer D, and 450 mM Buffer D respectively. The DNA-PKcs fraction was adjusted to 100 mM KCl using 0 mM Buffer D (salt concentration was measured by conductivity) and applied to a 10 ml column of heparin agarose (Sigma). The column was developed with a linear gradient of 100-200 mM Buffer D. The peak DNA-PKcs fraction from the heparin column was adjusted to 0.5 M ammonium sulphate and applied to a 2.5 ml column of phenyl Sepharose (Pharmacia) equilibrated in, typically, 300 mM Buffer D containing 0.5 M ammonium sulphate. Under these conditions, 100% of DNA-PKcs is retained by the column, whilst the majority of contaminating Ku flows through (as judged by western blotting using antibodies specific to the Ku subunits). The column was then washed extensively in 0 mM Buffer D containing 0.5 M ammonium sulphate, and subsequently in 0 mM Buffer D containing 0.4 M ammonium sulphate, which removes most of the remaining Ku, before applying a linear gradient of 0.4-0 M ammonium sulphate in 0 mM Buffer D. Peak DNA-PKcs fractions were dialysed into 50 mM Buffer D, applied to a 1 ml Mono-S FPLC column (Pharmacia), and eluted in a linear gradient of 50-500 mM Buffer D. Peak fractions were dialysed into 50 mM Buffer D and stored at −80° C. prior to use. The resulting protein preparation contained a single abundant polypeptide corresponding to DNA-PKcs as judged by Coomassie staining, silver staining and western blotting, with a ladder of smaller DNA-PKcs breakdown products. […] To assess the levels of Ku contamination in the DNA-PKcs preparation we carried out quantitative western blotting using Ku-specific antibodies. In these western blots, an essentially homogeneous preparation of Ku was titrated against known amounts of our DNA-PKcs preparations.
GST-Ku70 or GST-Ku80 containing glutathione agarose beads were incubated with 0.4 μg of purified DNA-PKcs under conditions of 120 mM KCl. The beads were then washed and any proteins retained on the beads were detected by silver-staining.
A control binding reaction using beads containing GST alone was also carried out. […]

[2] = target: DNA-PKcs (Homo sapiens, UniProt P78527); experiment: GST pull-down from HeLa cell nuclear extract; type: binding; parameters: incubated with ˜100 μg (10 μl) of HeLa Cell nuclear extract (NE); host or cells: HeLa cell nuclear extract; conditions: for effect of EtBr on interaction with DNA-PKcs in HeLa nuclear extract: EtBr 0.2 mg/ml; for proteins retrieved from crude HeLa nuclear extract: washed in buffer X containing 150 mM KCl, silver-staining
DNA-PKcs, sequence (P78527 whole entry): as above
Experimental: as §1
The inventors performed pull-down assays from HeLa cell nuclear extract using GST-Ku70 or GST-Ku80 bound to glutathione agarose beads. Thus, GST-Ku70 or GST-Ku80 protein was purified on glutathione agarose beads as described above, and the beads incubated with crude HeLa cell nuclear extract and washed extensively in buffer X containing 150 mM KCl. The bound proteins were then eluted in the presence of SDS, subjected to SDS-PAGE on a 6% polyacrylamide gel and detected by silver-staining. A control binding reaction was carried out using beads containing only GST.
The inventors investigated whether the observed interactions between DNA-PKcs and the individual Ku subunits were indirect and were being mediated by DNA and/or the Ku heterodimer present in the HeLa nuclear extract. EtBr was used in a final concentration of 0.2 mg/ml in order to address the potential involvement of DNA (EtBr disrupts protein-DNA interactions).

effect of EtBr on interaction with DNA-PKcs in HeLa nuclear extract [2]	Substance	effect of DNA or EtBr on binding of purified DNA-PKcs [1]	salt dependence of interaction with homogeneous DNA-PKcs [1]	interaction with purified DNA-PKcs [1]	proteins retrieved from crude HeLa nuclear extract [2]	effect of DNA or EtBr on binding of purified DNA-PKcs ([1]; listed as Ku70)
unaffected by EtBr	GST-Ku80: full length human Ku80 fused to glutathione S-transferase, expressed in E. coli	not affected by EtBr or by sheared genomic DNA; also recorded: no affect	still easily detectable at 150 mM KCl	interacts efficiently with purified DNA-PKcs	DNA-PKcs is the only protein that is retrieved	–
essentially abolished by EtBr treatment	GST-Ku70: full length human Ku70 fused to glutathione S-transferase, expressed in E. coli	no affect	at lower but not at higher ionic strengths, there is an interaction	very little interaction	DNA-PKcs is the only protein that is retrieved	no stimulation of binding was observed in the presence of DNA
